Where two headings read alike, the source gives them in different places. Values belong to the molecule of their own block, whether it stands above or below them.
Experiments:
Human VEGFA165 [1] = target: T1, Human VEGFA165 (human, UniProt P15692-4 27-191); assay: cell-based or functional assay
Human VEGFA165 [2] = target: T1, Human VEGFA165; assay: SPR Biacore 8K, VEGFA165 amine-coupled on CM5, nanobody as analyte, 1:1 model
Human VEGFA165 [3] = target: T1, Human VEGFA165; assay: as above; remark: listed apart in the source
Human VEGFA165 [4] = target: T1, Human VEGFA165; assay: SPR, VEGFA165 on CM5
Human VEGFA165 [5] = target: T1, Human VEGFA165; assay: phage ELISA, VEGFA coated 0.5 µg/mL, anti-M13(HRP)
Human VEGFA165 [6] = target: T1, Human VEGFA165; assay: ELISA, VEGFA coated 0.3 µg/mL, anti-His detection
Human VEGFA165 [7] = target: T1, Human VEGFA165; assay: competition ELISA on coated VEGFA, competitor VEGFR2-ECD-Fc 1 nM
[8] = target: 3% milk powder (negative control); assay: phage ELISA, 3% milk powder coated (negative control), anti-M13(HRP)
Human VEGFA165 [9] = target: T1, Human VEGFA165; assay: competition ELISA on coated VEGFA, competitor VEGFR2-ECD-Fc 1 nM; remark: listed apart in the source
Human VEGFA165 [10] = target: T1, Human VEGFA165; assay: competition ELISA on coated VEGFA, competitor VEGFR2-ECD-Fc 2 nM

T1 sequence (P15692 other isoform, or with tags, fused parts or gaps limits assumed): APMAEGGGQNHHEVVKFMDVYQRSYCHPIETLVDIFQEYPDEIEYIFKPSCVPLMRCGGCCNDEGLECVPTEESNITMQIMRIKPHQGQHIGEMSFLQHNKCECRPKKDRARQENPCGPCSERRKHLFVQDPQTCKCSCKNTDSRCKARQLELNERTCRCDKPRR

B1: V1-2m (VHH)
VHH: EVQLVESGGGLVQPGGSLRLSCAASGRTFSSYTMGWFRQAPGKEREFVVAISKGGYKYDSVSLEARFTISRDNSKNTVYLQMNSLRPEDTAVYYCAATRAYGSSRLRLADTYEYWGQGTLVTVSS
notes: Humanized V1
Kd (Human VEGFA165 [2]): 0.243 nM
koff (Human VEGFA165 [2]): 8.24e-05 s⁻¹
kon (Human VEGFA165 [2]): 339000 M⁻¹ s⁻¹

B3: V30-2H-78 (VHH)
VHH: EVQLVESGGGLVQPGGSLRLSCAASGRTFSSYTMGWFRQAPGKEREFVVAISKGGYKYDAVSLEARFTISRDNSKNTVYLQMNSLRAEDTAVYYCAATRAYGSSRLRLAKTYEYWGQGTLVTVSS
notes: Humanized V30
IC50 (Human VEGFA165 [9]): 4.97 nM
Maximum inhibition rate (%) (Human VEGFA165 [9]): 95.5%

B5: V13-4m (VHH)
VHH: EVQLVESGGGLVQPGGSLRLSCAASGRTFTSYTMGWFRQAPGKEREFVVAISKGGYKYDAVSLEARFTISRDNAKNTVYLQMNSLRPEDTAVYYCAGTRAYGSSRLRLADTYEYWGQGTLVTVSS
notes: Humanized V13
IC50 (Human VEGFA165 [10]): 26.8 nM
Maximum inhibition rate (%) (Human VEGFA165 [10]): 89.2%

B7: V1-4m (VHH)
VHH: EVQLVESGGGLVQPGGSLRLSCAASGRTFSSYTMGWFRQAPGKEREFVVAISKGGYKYDSVSLEARFTISRDNAKNTVYLQMNSLRPEDTAVYYCASTRAYGSSRLRLADTYEYWGQGTLVTVSS
notes: Humanized V1
IC50 (Human VEGFA165 [10]): 26.1 nM
Maximum inhibition rate (%) (Human VEGFA165 [10]): 93%

B8: V30-2H-87 (VHH)
VHH: EVQLVESGGGLVQPGGSLRLSCAASGRTFSSYTMGWFRQAPGKEREFVVAISKGGYKYDAVSLEARFTISRDNSKNTLYLQMNSLRPEDTAVYYCAATRAYGSSRLRLAKTYEYWGQGTLVTVSS
notes: Humanized V30
IC50 (Human VEGFA165 [9]): 5.81 nM
Maximum inhibition rate (%) (Human VEGFA165 [9]): 94.2%

B11: V29 (VHH)
VHH: QLQLVESGGGSVQPGGSLRLSCEVSGRTFSSYTMGWFRQAPGKEREFVVAISKGGYKYDSVSLEARFTISKDNTKNTVYLQMNSLKPEDTAVYYCAGTRAYGSSRLRLANTYEYWGQGTQVTVSS
notes: Purified with C-terminal GGGGS-6×His
Kd (Human VEGFA165 [3]): 0.436 nM
koff (Human VEGFA165 [3]): 0.000127 s⁻¹
kon (Human VEGFA165 [3]): 291000 M⁻¹ s⁻¹
fold difference of KD from the positive control BI-VEGF ab (Human VEGFA165 [4]): < 3 fold
OD450 (Human VEGFA165 [5]): 2.69 OD450
EC50 (Human VEGFA165 [6]): 0.77 nM
IC50 (Human VEGFA165 [7]): 2.98 nM
Maximum inhibition rate (%) (Human VEGFA165 [7]): 95.3%
OD450 [8]: 0.0553 OD450

B12: V1-com-87 (VHH)
VHH: EVQLVESGGGLVQPGGSLRLSCAASGRTFSSYTMGWFRQAPGKEREFVVAISKGGYKYDSVSLEARFTISRDNSKNTLYLQMNSLRPEDTAVYYCAATRAYGSSRLRLADTYEYWGQGTLVTVSS
notes: Humanized V1
Kd (Human VEGFA165 [2]): 0.252 nM
koff (Human VEGFA165 [2]): 9.08e-05 s⁻¹
kon (Human VEGFA165 [2]): 360000 M⁻¹ s⁻¹

B13: V1-com-78 (VHH)
VHH: EVQLVESGGGLVQPGGSLRLSCAASGRTFSSYTMGWFRQAPGKEREFVVAISKGGYKYDSVSLEARFTISRDNSKNTVYLQMNSLRAEDTAVYYCAATRAYGSSRLRLADTYEYWGQGTLVTVSS
notes: Humanized V1
IC50 (Human VEGFA165 [10]): 28.5 nM
Maximum inhibition rate (%) (Human VEGFA165 [10]): 93.7%
Kd (Human VEGFA165 [2]): 0.257 nM
koff (Human VEGFA165 [2]): 8.91e-05 s⁻¹
kon (Human VEGFA165 [2]): 347000 M⁻¹ s⁻¹

B14: V41 (VHH)
VHH: QLQLVESGGGSVQPGGSLRLSCEVSGRTFSSYTMGWFRQAPGKEREFVVAISKGGYKYDSVSLEARFTISKDNTKNTVYLQMNSLKPEDTAVYYCAGTRAYGSSRLRLAKTYEYWGQGTQVTVSS
notes: as for B11
Kd (Human VEGFA165 [3]): 0.482 nM
koff (Human VEGFA165 [3]): 0.00016 s⁻¹
kon (Human VEGFA165 [3]): 331000 M⁻¹ s⁻¹
fold difference of KD from the positive control BI-VEGF ab (Human VEGFA165 [4]): < 3 fold
OD450 (Human VEGFA165 [5]): 2.77 OD450
EC50 (Human VEGFA165 [6]): 0.57 nM
OD450 [8]: 0.0359 OD450

B15: V43-3H-87 (VHH)
VHH: EVQLVESGGGLVQPGGSLRLSCAASGRTFTSYTMGWFRQAPGKEREFVVAISKGGYKYDSVSLEARFTISRDNSKNTLYLQMNSLRPEDTAVYYCAGTRAYGSSRLRLANTYEYWGQGTLVTVSS
notes: Humanized V43
IC50 (Human VEGFA165 [9]): 7.15 nM
Maximum inhibition rate (%) (Human VEGFA165 [9]): 91.6%

B19: V13-2m (VHH)
VHH: EVQLVESGGGLVQPGGSLRLSCAASGRTFTSYTMGWFRQAPGKEREFVVAISKGGYKYDAVSLEARFTISRDNSKNTVYLQMNSLRPEDTAVYYCAGTRAYGSSRLRLADTYEYWGQGTLVTVSS
notes: Humanized V13 (CDR graft on humanized V1 frameworks)
IC50 (Human VEGFA165 [10]): 40.1 nM
Maximum inhibition rate (%) (Human VEGFA165 [10]): 88.9%

B20: V43-1H-2m (VHH)
VHH: EVQLVESGGGLVQPGGSLRLSCAASGRTFSSYTMGWFRQAPGKEREFVVAISKGGYKYDSVSLEARFTISRDNSKNTVYLQMNSLRPEDTAVYYCAATRAYGSSRLRLANTYEYWGQGTLVTVSS
notes: Humanized V43
IC50 (Human VEGFA165 [9]): 5.99 nM
Maximum inhibition rate (%) (Human VEGFA165 [9]): 94.5%

Further lines, results first:

Maximum inhibition rate (%) of HUVEC proliferation (Human VEGFA165 [1]): 0%
Molecule: negative control antibody (nanobody binding to an irrelevant antigen) (VHH)

Kd (Human VEGFA165 [3]): 0.193 nM
koff (Human VEGFA165 [3]): 8.09e-05 s⁻¹
kon (Human VEGFA165 [3]): 418000 M⁻¹ s⁻¹
fold difference of KD from the positive control BI-VEGF ab (Human VEGFA165 [4]): < 3 fold
OD450 (Human VEGFA165 [5]): 2.5 OD450
EC50 (Human VEGFA165 [6]): 0.53 nM
IC50 (Human VEGFA165 [7]): 6 nM
Maximum inhibition rate (%) (Human VEGFA165 [7]): 93.7%
OD450 [8]: 0.0519 OD450
B2: V43 (VHH)
VHH: QLQLVESGGGSVQPGGSLRLSCEVSGRTFTSYTMGWFRQAPGKEREFVVAISKGGYKYDSVSLEARFTISKDNTKNTVYLQMNSLKPEDTAVYYCAGTRAYGSSRLRLANTYEYWGQGTQVTVSS
notes: as for B11

IC50 (Human VEGFA165 [9]): 5.62 nM
Maximum inhibition rate (%) (Human VEGFA165 [9]): 95.5%
B4: V43-1H-78 (VHH)
VHH: EVQLVESGGGLVQPGGSLRLSCAASGRTFSSYTMGWFRQAPGKEREFVVAISKGGYKYDSVSLEARFTISRDNSKNTVYLQMNSLRAEDTAVYYCAATRAYGSSRLRLANTYEYWGQGTLVTVSS
notes: Humanized V43

Kd (Human VEGFA165 [3]): 0.522 nM
koff (Human VEGFA165 [3]): 0.000168 s⁻¹
kon (Human VEGFA165 [3]): 323000 M⁻¹ s⁻¹
fold difference of KD from the positive control BI-VEGF ab (Human VEGFA165 [4]): < 3 fold
OD450 (Human VEGFA165 [5]): 2.53 OD450
EC50 (Human VEGFA165 [6]): 0.64 nM
IC50 (Human VEGFA165 [7]): 3.91 nM
Maximum inhibition rate (%) (Human VEGFA165 [7]): 96.3%
OD450 [8]: 0.0489 OD450
B6: V33 (VHH)
VHH: QLQLVESGGGSVQPGGSLRLSCEVSGRTFSSYTMGWFRQAPGKEREFVVAISKGGYKYDSVSLEARFTISKDNTKNTVYLQMNSLKPEDTAVYYCAATRAYGSSRLRLAKTYEYWGQGTQVTVSS
notes: as for B11

IC50 (Human VEGFA165 [9]): 5.64 nM
Maximum inhibition rate (%) (Human VEGFA165 [9]): 94.7%
B9: V30-2H-2m (VHH)
VHH: EVQLVESGGGLVQPGGSLRLSCAASGRTFSSYTMGWFRQAPGKEREFVVAISKGGYKYDAVSLEARFTISRDNSKNTVYLQMNSLRPEDTAVYYCAATRAYGSSRLRLAKTYEYWGQGTLVTVSS
notes: Humanized V30

IC50 (Human VEGFA165 [9]): 5.27 nM
Maximum inhibition rate (%) (Human VEGFA165 [9]): 95.4%
B10: V43-1H-87 (VHH)
VHH: EVQLVESGGGLVQPGGSLRLSCAASGRTFSSYTMGWFRQAPGKEREFVVAISKGGYKYDSVSLEARFTISRDNSKNTLYLQMNSLRPEDTAVYYCAATRAYGSSRLRLANTYEYWGQGTLVTVSS
notes: Humanized V43

IC50 (Human VEGFA165 [9]): 8.63 nM
Maximum inhibition rate (%) (Human VEGFA165 [9]): 93.4%
B16: V43-3H-78 (VHH)
VHH: EVQLVESGGGLVQPGGSLRLSCAASGRTFTSYTMGWFRQAPGKEREFVVAISKGGYKYDSVSLEARFTISRDNSKNTVYLQMNSLRAEDTAVYYCAGTRAYGSSRLRLANTYEYWGQGTLVTVSS
notes: Humanized V43

IC50 (Human VEGFA165 [10]): 35.5 nM
Maximum inhibition rate (%) (Human VEGFA165 [10]): 89.3%
B17: V43-4m (VHH)
VHH: EVQLVESGGGLVQPGGSLRLSCAASGRTFTSYTMGWFRQAPGKEREFVVAISKGGYKYDSVSLEARFTISRDNAKNTVYLQMNSLRPEDTAVYYCAGTRAYGSSRLRLANTYEYWGQGTLVTVSS
notes: Humanized V43

IC50 (Human VEGFA165 [10]): 26.7 nM
Maximum inhibition rate (%) (Human VEGFA165 [10]): 93.5%
B18: V1-SA3 (VHH)
VHH: EVQLVESGGGLVQPGGSLRLSCAASGRTFSSYTMGWFRQAPGKEREFVVAISKGGYKYDSVSLEARFTISRDNAKNTVYLQMNSLRAEDTAVYYCAATRAYGSSRLRLADTYEYWGQGTLVTVSS
notes: Humanized V1

Kd (Human VEGFA165 [3]): 0.285 nM
koff (Human VEGFA165 [3]): 0.00012 s⁻¹
kon (Human VEGFA165 [3]): 419000 M⁻¹ s⁻¹
fold difference of KD from the positive control BI-VEGF ab (Human VEGFA165 [4]): < 3 fold
OD450 (Human VEGFA165 [5]): 2.77 OD450
EC50 (Human VEGFA165 [6]): 0.36 nM
IC50 (Human VEGFA165 [7]): 4.72 nM
Maximum inhibition rate (%) (Human VEGFA165 [7]): 96.3%
OD450 [8]: 0.0623 OD450
B21: V36 (VHH)
VHH: QLQLVESGGGSVQPGGSLRLSCEVSGRTFASYTMGWFRQAPGKEREFVVAISKGGYKYDSVSLEARFTISKDNTKNTVYLQMNSLKPEDTAVYYCAGTRAYGSSRLRLADTYEYWGQGTQVTVSS
notes: as for B11

IC50 (Human VEGFA165 [10]): 20 nM
Maximum inhibition rate (%) (Human VEGFA165 [10]): 94.4%
B22: V1-com-74-78-97 (VHH)
VHH: EVQLVESGGGLVQPGGSLRLSCAASGRTFSSYTMGWFRQAPGKEREFVVAISKGGYKYDSVSLEARFTISRDNAKNTVYLQMNSLRAEDTAVYYCASTRAYGSSRLRLADTYEYWGQGTLVTVSS
notes: Humanized V1

Source: patent EP4582447A1 (Quaerite Biopharm Research (Beijing) Co., Ltd., dated 2025)
